Here are results for twelve molecules from patent US20140289906A1, “Compositions Having Dicamba Decarboxylase Activity and Methods of Use” (priority 2013, published 2014).

Changes are numbered by the printed parent chain.

Sequences and labels used below:
B1: 31 (protein, listed as Agrobacterium sp.)
chain: MAQGKVALEEHFAIPETLQDSAGFVPGDYWKELQHRLLDIQDTRLKLMDAHGIETMILSLNAPAVQAIPDKTKAIEIARRANDVLAEECAKRPDRFLAFAALPLQDPDAATEELQRCVNDLGFVGALVNGFSQEGDGQTPLYYDLPQYRPFWGEVEKLDVPFYLHPRNPLPQDSRIYDGHPWLLGPTWAFAQETAVHALRLMASGLFDEHPRLNIILGHMGEGLPYMMWRIDHRNAWVKLPPRYPAKRRFMDYFNENFHITTSGNFRTQTLIDAILEIGADRILFSTDWPFENIDHASDWFNATSIAEADRVKIGRTNARRLFKLDGA
B2: 36 (protein, listed as Agrobacterium sp.)
chain: B1 chain with K31T, V84A, D94N, E112Q, T139I, M251V, N302H, A328R
B3: 44 (protein, listed as Mycobacterium avium)
chain: MARIITVEEHFQHPEVSARVAELTGPAVEGLAEFGNAFSLDPDSTARLGGNRLAHMDQVGIDVQVVSHGNGSPGTLQHPEAVELCRRVNNDLAAQIAENPDRFRGFATLPLYDPAAAAEELRRCVGDLGFVGALIAGSYDGLFLDDERFDPILTAAEAVDFPIYVHPGLPEAPVSQRYYAGSWPASVHMMFSGPAFGWHAEAGIHIVRLILSGALDRHPTLKLLSGHWGELAAFYLERLDETLGLLPTGLERAPSDYYRQQVWITPSGMYNQNQLNFMTAELGAQRIIYSEDFPYVVRDNVSTFLEQAGLSEADTHAIAHTNAEALLRI
B4: 33 (protein, listed as Rhizobium leguminosarum)
chain: MAQGKIALEEHFAIPETLQDSAGFVPGDYWKELSARLLDIQEKRLRLMDAHGIEKMILSLNAPAVQAIPDRAKALEISRRANDFLAEQCVKNPNRFLGFAALPLQDPDAATQELQRCVTTMGFVGALVNGFSQEGDGTTPLYYDLPQYRSFWAEVEKLNVPFYLHPRNPLPQDSRIYAGHSWLMGPTWAFAQETAVHALRLMGSGLFDEHPALRIIVGHMGEGLPYMMWRIDNRNAWVKVEKSYPAKRPIADYFNENFYITTSGNFRTQSLIDAMLEIGADRILFSADWPFENIDHAANWFDSATISEADRLKIGRTNAVSLFKLDR
B5: 43 (protein, listed as Rhizobium leguminosarum)
chain: B4 chain with K31T, E42D, A50T, R71K, L75V, S150P, N159D, I294V
B6: 35 (protein)
chain: MAFKASRKIALEEHFAIDATVQDSAGFVPPSYWAELKRRLLDIHDRRIDEMDRNGVELMVLSLNAPTVQAVPNIKDAYDLSRRANDFLAEQIVKRPERFKGFAALPMQSPDLAARELERCVKELNFVGALVNGFSQVEESGTALYYDLPQYRQFWSVVQALDVPFYLHPRNPLPAHAPIYEGHPWLLGPTWAFGQETAVHALRLMGSGLFDEYPELKIILGHMGEGLPYSMWRIDNRNAWVETQPNYPAKKRIAEYFHKNFWLTTSGNFRTQTLIDAMLEIGSDRILFSTDWPFENVDHAAQWFDDAAISENDRIKIARTNAARLFKLEP
modifications: Burkholderia sp
B7: 30 (protein)
chain: MARGKIALEEHVSTPENNRLWDSTGEANRNGSEYMQDVERRLLDRSIQLEEMAQRNIDHVILSLTSPGAQSILDKAKAVSFARDTNDFIVDNYVKPNPDKFSAFATLALQNPEAAAEELERAVKKLGMKGALINGYTNVKDSEHGLYLDDESMLVFWDKVNELNVPVYLHPREPLEGPARGIYTGYESLIGSAWGFAQETAVHAIRLMMSGLFDRYPNLNLVLGHLGEGLVHMLPRTQHRLYRQRFGCGLGKAEKPLMHYLQNNFIVTTSGHFNTHSLNNAIEVMGADRVMFSVDYPYEDIHQACDWFDPLEMDEGLKEKIAWGNASRVFNIK
modifications: Enterobacter aerogenes
B8: 46 (protein, listed as Rhodococcus opacus)
chain: MARIITLEEHYLDPAIAAASAPLARELSPDFAAAYDPASGLSYTPSAQVLQDLGQRRIADMDTHGISMQVLSCLTTQQVPADVAPDLVRAANDTAAAAVRAHPDRFAAFAALPTTAPDAAATELARCIDDLGFVGTMINGRTDGEFLDAPRFDPILATAAARNVPIYLHPAVPPRATSDSNYAGLAPLVTARLQTSAWGWHQETAVHFLHLVLSGVLDRYPNLQFILGHWGEMIPFYLDRLDEALPQAVTNLDRTISDYVRENVYITPSGMFNQAQLQYCVETLGVDRILYSVDYPFIGNDGAVSFLDEANLPDEAKHQIAHQNTEKLLGL
B9: 34 (protein)
chain: MAQGKIGLEEHFAIPETLNDSAGFVPGDYWKELSRRLLDIQDDRLRQMDENGMEMMLLSLNAPAVQAVPDRKQACELAVRANDFLAEQVSRRPDRFQALAALPLQDPDFATVELTRCVNELGMRGALVNGFSQIDTPDNVVYYDAPQYASFWAAVEKLDVPFYLHPRNPIASWAQIYDGHPWLLGPTWAFGQETAVHALRLMASGLFDRHPALQIVLGHLGEGLPYSLWRIDNRNAWVKAPKTHPAKKTFRHYFQQNFHLTTSGNFHNQTLIDAILEIGADRILFSTDWPFENIDHAAKWFDSASISEADRTKIGRTNAMKLFKLVA
modifications: Cupriavidus necator
B10: 48 (protein, listed as Amycolatopsis mediterranei)
chain: MASMKLYGLEEHFVTADVIEAWRRRDPGLAEPMMKWAVASDITPALLDVDGGRIAAMDDAGIDTTVLSLTTPGLQNLDAAEAVALQAPTNDLIAAAVRRHPGRFQGFATLATSAPAAAADELRRAVTELGLNGALVNANSRGRALDAPGFWDIYEAAEDLRAPVYLHPGVPVPAVTEAYYRGFGEPVNSMLATGAFGWHYDAGLTILRMIVAGVFDRFPGLQVILGHWGEVVLFYLDRVAAMDKLTALRRPIAEYFRSNIFITPGGISSHKYLRWSLETVGVERIMYASDYPFNTERAGSARRFLDTAPVDEAGRERIAYRNWEELIAGIRR
B11: 47 (protein, listed as Serratia odorifera)
chain: MAKIICLEEHTLDKALVMASMPAALAQAPFLSDWGKTITDGNLPDRSRPQIEKNDLINVKGADIGRGRLDDMDEAGITMQVLSVGGFPHLISAAEGVDLNRAANDRLANAVNAHPDRFAAFATLPWAQPDAAEKELERAVKELGFKGALLNGRPSIHFLDHPDYDGLLARFNALGVPLYLHPGLPVRSVQQAYYSGFSDEVTARLSMFGWGWHHEAGIHLLRLILSGAFDKYPNLQVISGHWGEMLPFWLQRLDDSLPQAATGLRRTITQTFREQVYVTPSGMLTLPHFQFIYALLGAERILFSVDYPYQTLDGVKAFIQSLPVPEEAKEAIAFRNAERLFGLTS
B12: 28 (protein, listed as Sphingomonas paucimobilis)
chain: MARLIATEEAVTFQPVVDALRAHSRTDDASLDMILVRDVYGDEPARPAMIGRLSDVTGERLAEMDSNGVDMHLLSLTAPGVQMFDAETGTRLARIANDLMAQTVAANPTRFAGLGTFAPQDPASAAREIERVATQLRLNGLVINSHTNDLYYDDPFFHPVFEAIEASGLALYIHPRAPSKQIDRAFRDYGMNSAIWGYGIETSTNAVRMILSGLFDRFPRLKIVLGHMGEAIPFWLWRLDYMHGNATTFGGAPKLKLKPSEYFRRNFAITTSGVESHAALRYSIEVLGPENVMWAIDYPYQPMAPAVQFIRTAPIPEDVKAMVAGGNAARIFRIT

One series can be described thus: 14C assay: 14CO2 capture from [14C]-carboxyl-labeled dicamba with IPTG-induced recombinant E. coli cells. The settings on record: IPTG-induced recombinant E. coli cells; 14CO2 from [14C]-carboxyl-labeled dicamba.
For the molecule B1, the “Dicamba Decarboxylase Activity” value was “High”.
For B2, the “Dicamba Decarboxylase Activity” value is “High”.
On the same count and under the same terms, with B3 the entry was “High”; with B4, “High”.
Still for that read-out and setting: the result for B5 reads “High”.
Turning to B6, the “Dicamba Decarboxylase Activity” value was “High”.
As to B7, the “Dicamba Decarboxylase Activity” value was “High”.
On the same count and under the same terms, with B8 the entry was “High”; with B9, “High”; with B10, “High”.
The same measure, in the same setting: with B11 the entry was “High”; with B12, “High”.

The same series, now with this note: among the 108 sequences tested; recombinant E. coli cell assay.
Consider B1, for which the “decarboxylation activity of dicamba” value is recorded as “showed decarboxylation activity of dicamba”.
On the same count and under the same terms, with B2 the entry was “showed decarboxylation activity of dicamba”; with B3, “showed decarboxylation activity of dicamba”.
The same measure, in the same setting: with B4 the entry was “showed decarboxylation activity of dicamba”; with B5, “showed decarboxylation activity of dicamba”; with B6, “showed decarboxylation activity of dicamba”.
As for B7, the “decarboxylation activity of dicamba” value is given as “showed decarboxylation activity of dicamba”.
The same measure, in the same setting: the result for B8 reads “showed decarboxylation activity of dicamba”; that for B9, “showed decarboxylation activity of dicamba”; that for B10, “showed decarboxylation activity of dicamba”.
Regarding B11, the “decarboxylation activity of dicamba” value is recorded as “showed decarboxylation activity of dicamba”.
Regarding B12, the “decarboxylation activity of dicamba” value is listed as “showed decarboxylation activity of dicamba”.

Still in this series, the particulars now being: dicamba decarboxylation activity.
Regarding B1, the “Enzymatic Detection level” value is recorded as “High”.
On the same count and under the same terms, with B2 the entry was “High”.
Same read-out and setting: the result for B3 reads “High”; that for B4, “High”.
Same read-out and setting: the result for B5 reads “High”.
In the case of B6, the “Enzymatic Detection level” value is recorded as “High”.
For the molecule B7, the “Enzymatic Detection level” value is listed as “High”.
Still for that read-out and setting: the result for B8 reads “High”; that for B9, “High”.
The same measure, in the same setting: the result for B10 reads “High”; that for B11, “High”.
Same read-out and setting: the result for B12 reads “High”.
